We go through one substance from publication PMC9521807.

The experiment concerns the target OsRMC-His (rice (Oryza sativa)). In words: BLI.

For “MoCel6A (analyte of the binding kinetics) (enzyme)”, the Kd was found to be 21.9 nM, the off-rate constant (koff) stood at 0.000845 s⁻¹ and the kon stood at 38900 M⁻¹ s⁻¹.
